Source: publication PMC9482650, “Quantitative fragmentomics allow affinity mapping of interactomes” (Nature Communications, 2022)

T1: APBA3_1, O96018
T1 sequence (O96018 389-490, limits assumed, looked up): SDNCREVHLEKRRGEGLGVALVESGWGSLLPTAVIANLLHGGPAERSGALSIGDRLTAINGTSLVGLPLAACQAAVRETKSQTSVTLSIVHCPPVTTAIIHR


Key:
Assay in all cases: holdup assay
Set-up in all cases: key: below the threshold = too weak to quantify, mostly under pKd 3.1 to 4
TJP2_1, Q9UDY2 = target: TJP2_1, Q9UDY2
APBA3_1, O96018 = target: T1, APBA3_1, O96018
CASK, O14936 = target: CASK, O14936
[1] = plain residues with an end cap or a label only (N-terminal biotin on a linker: ado-ado)
[2] = plain residues with an end cap or a label only (N-terminal biotin on a linker: ahx)

Chain of CASK, O14936 (O14936 487-570): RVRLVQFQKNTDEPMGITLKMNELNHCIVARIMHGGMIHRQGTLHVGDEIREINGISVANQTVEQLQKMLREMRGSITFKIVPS
Chain of TJP2_1, Q9UDY2 (Q9UDY2 24-128): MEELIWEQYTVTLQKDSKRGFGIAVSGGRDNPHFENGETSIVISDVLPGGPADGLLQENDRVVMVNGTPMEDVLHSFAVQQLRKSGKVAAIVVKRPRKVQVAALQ

Row | Binder | pKd (TJP2_1, Q9UDY2; [1]) | pKd (APBA3_1, O96018; [1]) | pKd (CASK, O14936; [1]) | pKd (TJP2_1, Q9UDY2; [2]) | pKd (APBA3_1, O96018; [2]) | pKd (CASK, O14936; [2])
1 | ARGPPRESEV [FAM110D, Q8TAY7] | below the threshold | below the threshold | below the threshold |  |  | 
2 | ARSAAASNYV [CLDN4, O14493] | 3.92 | below the threshold | below the threshold |  |  | 
3 | QDEKVKESYV [ABCA1, O95477] |  |  |  | 4.36 | below the threshold | below the threshold
4 | GEDRSPPTAL [MKNK1, Q9BUB5] | below the threshold | below the threshold | below the threshold |  |  | 
5 | KKMLQRRTLL [OR8G1, Q15617] | 4.32 | below the threshold | below the threshold |  |  | 
6 | QSGLYESEEL [MYOT, Q9UBF9] | below the threshold | below the threshold | below the threshold |  |  | 
7 | SVTSERETNI [SLC16A7, O60669] | below the threshold | below the threshold | below the threshold |  |  | 
8 | QPRTWLQSPV [RTKN, Q9BST9] |  |  |  | below the threshold | below the threshold | below the threshold
9 | NNNVVKVDSV [MTNR1A, P48039] | below the threshold | below the threshold | below the threshold |  |  | 
10 | DPAESMESLV [PTPRG, P23470] | below the threshold | below the threshold | below the threshold |  |  | 
11 | KSRVAFFEEL [NF2, P35240;P35240-1] |  | below the threshold | below the threshold |  |  | 
12 | LPAVCYDIDI [PTTG2, Q9NZH5] | below the threshold | below the threshold | below the threshold |  |  | 
13 | NISYRRESAI [KCNJ4, P48050] | below the threshold | below the threshold | below the threshold |  |  | 
14 | NTANRRTTPV [CACNG2, Q9Y698] | 3.9 | below the threshold | below the threshold |  |  | 
15 | KRPEMTSSSV [MUC3A, MUC3B, Q02505;Q9H195] | below the threshold | below the threshold |  |  |  | 
16 | SRSVVESDEL [MYPN, Q86TC9] | below the threshold | below the threshold | below the threshold |  |  | 
17 | PTPDLPQTRV [KLHDC7A, Q5VTJ3] | below the threshold | below the threshold | below the threshold |  |  | 
18 | PSVGSKKTVL [REELD1, A0A1B0GV85] | 4.1 | below the threshold | below the threshold |  |  | 
19 | QNTDDVQTSF [ACE2, Q9BYF1] |  |  |  | below the threshold | below the threshold | below the threshold
20 | QRPYRRGSEI [KCNJ18, B7U540] | below the threshold | below the threshold | below the threshold |  |  | 

Now from value to binder:

Row | pKd (TJP2_1, Q9UDY2; [1]) | pKd (APBA3_1, O96018; [1]) | pKd (CASK, O14936; [1]) | pKd (TJP2_1, Q9UDY2; [2]) | pKd (APBA3_1, O96018; [2]) | pKd (CASK, O14936; [2]) | Binder
21 | below the threshold | below the threshold | below the threshold |  |  |  | TISFTQTSQF [SLC1A1, P43005]
22 | below the threshold | below the threshold | below the threshold |  |  |  | DTKNYKQTSV [CRIPT, Q9P021]
23 | 4.05 | below the threshold | below the threshold |  |  |  | NTLNRKTTPV [CACNG8, Q8WXS5]
24 | below the threshold | below the threshold | below the threshold |  |  |  | AEASVACSLC [PTGIR, P43119]
25 | 3.56 | below the threshold | below the threshold |  |  |  | NVYGIESVKI [GRIA2, P42262]
26 | below the threshold | below the threshold | below the threshold |  |  |  | LKDDELKTKL [SLCO1A2, P46721]
27 | below the threshold | below the threshold | below the threshold |  |  |  | IDESKKEWLI [CNTNAP2, Q9UHC6]
28 | 4 | below the threshold | below the threshold |  |  |  | SFISKKEWYV [NECTIN1, Q15223]
29 | 3.82 | 3.57 | 3.59 |  |  |  | EIPAQSPTCV [FZD10, Q9ULW2]
30 |  |  |  | below the threshold | below the threshold | below the threshold | TQKFRASTAL [FRMPD1, Q5SYB0]
31 | 3.89 | below the threshold | below the threshold |  |  |  | GIKKITSTAL [RPS6KA3, P51812]
32 | 4.58 | below the threshold | below the threshold |  |  |  | PSHPRLQTHV [KIRREL2, Q6UWL6]
33 | below the threshold | below the threshold | below the threshold |  |  |  | DFLSTFHIRI [CIB2, O75838]
34 | below the threshold | below the threshold | below the threshold |  |  |  | DRIQSCLSDA [SBF1, O95248]
